# Measured values as given in the RNAGym collection of RNA variant scans (doi:10.7554/elife.80360).
# B1: Hairpin Ribozyme (parent)
# chain: GUCCUCUUUCACGUGCGCGUGAAAGAGAGAAGUGAACCAGAGAAACACACGUUGUGGUAUAUUACCUGGUA
# Variants of: B1
# Experiment: self-cleavage, relative activity (ratio to wild type); higher = more cleavage; co-transcriptional
row,Variant,self-cleavage
1,GUCCUCUUUCACGUGCGCGUGAAAGAGAGAAGUGAACCAGACAUACACACGUUGUGGUAUAUUACCUGGUA [G42C A44U],0.174
2,GUCCUCUUUCACGUGCGCGUGAAAGAGAGAAGUGAACCAGACAGACACACGUUGUGGUAUAUUACCUGGUA [G42C A44G],0.137
3,GUCCUCUUUCACGUGCGCGUGAAAGAGAGAAGUGAACCAGACAAACACACGUUGUGGUAUAUUACCUGUUA [G42C G69U],0.157
4,GUCCUCUUUCACGUGCGCGUGAAAGAGAGAAGUGAACCAGACAAACACACGUUGUGGUAUAUUACCUGCUA [G42C G69C],0.145
5,GUCCUCUUUCACGUGCGCGUGAAAGAGAGAAGUGAACCAGACAAACACACGUUGUGGUAUAUUACCUGAUA [G42C G69A],0.0872
6,GUCCUCUUUCACGUGCGCGUGAAAGAGAGAAGUGAACCAGACAAACACACGUUGUGGUACAUUACCUGGUA [G42C U60C],0.419
7,GUCCUCUUUCACGUGCGCGUGAAAGAGAGAAGUGAACCAGACAAACACACGUUGUGGCAUAUUACCUGGUA [G42C U58C],0.185
8,GUCCUCUUUCACGUGCGCGUGAAAGAGAGAAGUGAACCAGACAAACACACGUUGUGUUAUAUUACCUGGUA [G42C G57U],0.146
9,GUCCUCUUUCACGUGCGCGUGAAAGAGAGAAGUGAACCAGACAAACACACGUUCUGGUAUAUUACCUGGUA [G42C G54C],0.113
10,GUCCUCUUUCACGUGCGCGUGAAAGAGAGAAGUGAACCAGACAAACACACUUUGUGGUAUAUUACCUGGUA [G42C G51U],0.448
11,GUCCUCUUUCACGUGCGCGUGAAAGAGAGAAGUGAACCAGACAAACACACGUUGUGGUAUAAUACCUGGUA [G42C U62A],0.102
12,GUCCUCUUUCACGUGCGCGUGAAAGAGAGAAGUGAACCAGACAAACACACGUUGUGGUAUACUACCUGGUA [G42C U62C],0.221
13,GUCCUCUUUCACGUGCGCGUGAAAGAGAGAAGUGAACCAGACAAACACACGUUGUGGUAUAGUACCUGGUA [G42C U62G],0.0896
14,GUCCUCUUUCACGUGCGCGUGAAAGAGAGAAGUGAACCAGACAAACACACGUUGUGGUAUAUUACCAGGUA [G42C U67A],0.0793
15,GUCCUCUUUCACGUGCGCGUGAAAGAGAGAAGUGAACCAGACAAACACACGUUGUGGUAUAUUACCGGGUA [G42C U67G],0.125
16,GUCCUCUUUCACGUGCGCGUGAAAGAGAGAAGUGAACCAGACAAACACACGUUGUGGUCUAUUACCUGGUA [G42C A59C],0.188
17,GUCCUCUUUCACGUGCGCGUGAAAGAGAGAAGUGAACCAGACAAACACACGUUGUGGUUUAUUACCUGGUA [G42C A59U],0.156
18,GUCCUCUUUCACGUGCGCGUGAAAGAGAGAAGUGAACCAGACAAACACACGUUGUGGUAUAUUACCUGGUG [G42C A71G],0.339
19,GUCCUCUUUCACGUGCGCGUGAAAGAGAGAAGUGAACCAGACAAACACACGUUGUGGUAUAUUACCUGGUU [G42C A71U],0.142

row,Variant,self-cleavage
1,GUCCUCUUUCACGUGCGCGUGAAAGAGAGAAGUGAACCAGACAAACACACGUUGUGGUAUAUUAACUGGUA [G42C C65A],0.21
2,GUCCUCUUUCACGUGCGCGUGAAAGAGAGAAGUGAACCAGACAAACACAAGUUGUGGUAUAUUACCUGGUA [G42C C50A],0.212
3,GUCCUCUUUCACGUGCGCGUGAAAGAGAGAAGUGAACCAGACAAACACACGUUGUGGUAUAUUACGUGGUA [G42C C66G],0.137
4,GUCCUCUUUCACGUGCGCGUGAAAGAGAGAAGUGAACCAGACAAACACACGUUGUGGUAUAUUACUUGGUA [G42C C66U],0.13
5,GUCCUCUUUCACGUGCGCGUGAAAGAGAGAAGUGAACCAGACAAACACACGUUGUGGUAUAUUACAUGGUA [G42C C66A],0.103
6,GUCCUCUUUCACGUGCGCGUGAAAGAGAGAAGUGAACCAGACAAAUACACGUUGUGGUAUAUUACCUGGUA [G42C C46U],0.12
7,GUCCUCUUUCACGUGCGCGUGAAAGAGAGAAGUGAACCAGAUGAACACACGUUGUGGUAUAUUACCUGGUA [G42U A43G],0.102
8,GUCCUCUUUCACGUGCGCGUGAAAGAGAGAAGUGAACCAGAUCAACACACGUUGUGGUAUAUUACCUGGUA [G42U A43C],0.179
9,GUCCUCUUUCACGUGCGCGUGAAAGAGAGAAGUGAACCAGACAAACACACGUUGUCGUAUAUUACCUGGUA [G42C G56C],0.159
10,GUCCUCUUUCACGUGCGCGUGAAAGAGAGAAGUGAACCAGACAAACUCACGUUGUGGUAUAUUACCUGGUA [G42C A47U],0.147
11,GUCCUCUUUCACGUGCGCGUGAAAGAGAGAAGUGAACCAGACAAACACACGUUGUGGUAUAUUGCCUGGUA [G42C A64G],0.232
12,GUCCUCUUUCACGUGCGCGUGAAAGAGAGAAGUGAACCAGACAAUCACACGUUGUGGUAUAUUACCUGGUA [G42C A45U],0.124
13,GUCCUCUUUCACGUGCGCGUGAAAGAGAGAAGUGAACCAGACAAGCACACGUUGUGGUAUAUUACCUGGUA [G42C A45G],0.095
14,GUCCUCUUUCACGUGCGCGUGAAAGAGAGAAGUGAACCAGACAAACACACGUUGUGGUAUAUGACCUGGUA [G42C U63G],0.238
15,GUCCUCUUUCACGUGCGCGUGAAAGAGAGAAGUGAACCAGACAAACACACGUCGUGGUAUAUUACCUGGUA [G42C U53C],0.491
16,GUCCUCUUUCACGUGCGCGUGAAAGAGAGAAGUGAACCAGACAAACACACGCUGUGGUAUAUUACCUGGUA [G42C U52C],0.427
17,GUCCUCUUUCACGUGCGCGUGAAAGAGAGAAGUGAACCAGACAAACAUACGUUGUGGUAUAUUACCUGGUA [G42C C48U],0.143
18,GUCCUCUUUCACGUGCGCGUGAAAGAGAGAAGUGAACCAGACAAACAGACGUUGUGGUAUAUUACCUGGUA [G42C C48G],0.113
19,GUCCUCUUUCACGUGCGCGUGAAAGAGAGAAGUGAACCAGACAAACACACGUUGUGGUAUAUUACCUGGGA [G42C U70G],0.145
